{
  "source": "paper PMC2862297",
  "about": "(Journal of molecular biology, 2010)",
  "proteins": {"B1": {"name": "LTag108-627 deletion mutant of SV40 large T antigen (domain or fragment)", "chain": "EMPSSDDEATADSQHSTPPKKKRKVEDPKDFPSELLSFLSHAVFSNRTLACFAIYTTKEKAALLYKKIMEKYSVTFISRHNSYNHNILFFLTPHRHRVSAINNYAQKLCTFSFLICKGVNKEYLMYSALTRDPFSVIEESLPGGLKEHDFNPEEAEETKQVSWKLVTEYAMETKCDDVLLLLGMYLEFQYSFEMCLKCIKKEQPSHYKYHEKHYANAAIFADSKNQKTICQQAVDTVLAKKRVDSLQLTREQMLTNRFNDLLDRMDIMFGSTGSADIEEWMAGVAWLHCLLPKMDSVVYDFLKCMVYNIPKKRYWLFKGPIDSGKTTLAAALLELCGGKALNVNLPLDRLNFELGVAIDQFLVVFEDVKGTGGESRDLPSGQGINNLDNLRDYLDGSVKVNLEKKHLNKRTQIFPPGIVTMNEYSVPKTLQARFVKQIDFRPKDYLKHCLERSEFLLEKRIIQSGIALLLMLIWYRPVAEFAQSIQSRIVEWKERLDKEFSLSVYQKMKFNVAMGIGVLD"}},
  "molecular_target": "the molecule itself",
  "test": "cryo-EM structure",
  "data": [
    {"protein": "B1", "values": [
      {"measurement": "stoichiometry N", "value": 12}
    ]}
  ]
}
